Experimental data from PMC5810956 (Immunity, 2018).
Changes are numbered by the printed parent chain.

B1: K03.12 Fab (tag removed, for binding studies) (Fab, V domains shown)
VH: EVQLVQSGAEVKKPGASVKVSCKTSGYTFTAYYLHWVRQAPGQGFEWMAWINPNTGDTNYAQKFQGRVTLSRDTSITTAYMELTRLRSDDTAVYYCAKDLTLMYVFDSGWARGAHDYYGMDVWGQGTTVAVSG
VL: PSALTQPASVSGSPGQSVTISCTGTNSDVGTFDLVSWYQQYPGKAPKLIIYEGSRRPSGVSDRFSGSKSGNTASLTISGLQAEDEADYYCSSYAGSVVFGGGTKLTVL
B2: K03.12 Fab for crystallization (noncleavable 6xHis tag) (Fab, V domains shown)
VH: B1 VH
VL: B1 VL
B3: K03.1-12 lineage unmutated common ancestor (UCA) Fab (tag removed, for binding studies) (Fab, V domains shown)
VH: not shown
VL: QSALTQPASVSGSPGQSITISCTGTSSDVGSYNLVSWYQQHPGKAPKLMIYEGSKRPSGVSNRFSGSKSGNTASLTISGLQAEDEADYYCCSYAGSVVFGGGTKLTVL
B4: I-11 Fab (inferred evolutionary intermediate of the K03.1-12 lineage) (Fab, V domains shown)
VH: not shown
VL: B3 VL with I18V

Experiments:
[1] = molecular target: HA head of A/Florida/904/2000 (H1N1) (Influenza A virus A/Florida/904/2000 …, UniProt Q91R26, strain); assay: BLI
[2] = molecular target: T1, HA head domain of A/Texas/50/2012 (H3N2) (Influenza A virus A/Texas/50/2012 (H3N2), strain); assay: BLI
[3] = molecular target: T1, HA head domain of A/Texas/50/2012 (H3N2); assay: crystal structure

| Binder | binding result [1] | binding result [2] | binding result [3] |
| --- | --- | --- | --- |
| B1 | binds | binds | – |
| B2 | – | – | binds |
| B3 | binds | binds | – |
| B4 | binds | binds | – |
